Columns and labels:
[1] = tested on: [H][C@@]12C[C@H](O)C3=C(C(=O)C[C@]4(C)[C@@]([H])([C@H](C)CC(=O)C[C@@H](C)C(=O)O)C[C@H](O)[C@@]34C)[C@@]1(C)CCC(=O)C2(C)C; assay: purified protein; conditions: 10 mM UDP-glucose, 10 mM MgCl2, 50 mM Tris pH 8.0, 40 °C
Source text: UPLC of GAA-15-O-beta-glucoside formation, Michaelis-Menten nonlinear fit on BsUGT489

[2] = substrate: [H][C@@]12C[C@H](O)C3=C(C(=O)C[C@]4(C)[C@@]([H])([C@H](C)CC(=O)C[C@@H](C)C(=O)O)C[C@H](O)[C@@]34C)[C@@]1(C)CCC(=O)C2(C)C; assay: UPLC of GAA-15-O-beta-glucoside formation, Michaelis-Menten nonlinear fit; assay type: biochemical, Bacillus spizizenii; conditions: 10 mM UDP-glucose, 10 mM MgCl2, 50 mM Tris pH 8.0, 40 °C
Source text: UPLC of GAA-15-O-beta-glucoside formation, Michaelis-Menten nonlinear fit on BsUGT398

Molecule | Km [1] | kcat [1] | kcat/Km [1] | Km [2] | kcat [2] | kcat/Km [2]
BsUGT489 (Bacillus spizizenii) | 793.96 ± 124.09 µM | 0.934 ± 0.0626 s⁻¹ | 1180 ± 200 M⁻¹ s⁻¹ |  |  | 
BsUGT398 (Bacillus spizizenii str. W23) (protein, recombinant purified, obtained from the authors' previous study; GT1 family) MKTVLILNFPAEGHVNPTLGITKAFADRGYDVHYISTEKYKERLEAVGATVHLHQDLLRTTPINIASPNGILDFLKIHIKTSLDILHIVKELSKSIQFDFVYYDKFGAGELVRDYLNIPGISSSASFLFGEEHLKILPLHPDSEVPLQLDKQCEDLLLEMKQNYGVSPENMVQFMNNKGELNVVYTSRYFQPESHRFGDEFLFIGPSFPKRAEKTDFPTDKLKDEKVIYISMGTVLDETEEFFNLCIDAFSDVKGKVVIAAGEKADLTKLKQAPENFIIASYVPQLEVLEQSDVFITHGGMNSVNEGIHFNVPLVVMPHDKDQPMVAQRLTELQAGYTVSKDHVTAQSLKHAVEEVLNNDRYKEGIQKINRSFQDCMNMEEVMERIDQFIEQRK |  |  |  | 90.71 ± 14.86 µM | 0.14 ± 0.0051 s⁻¹ | 1540 ± 259 M⁻¹ s⁻¹

— PMC6829469, “A Genome-Centric Approach Reveals a Novel Glycosyltransferase from the GA A07 Strain of Bacillus thuringiensis Responsible for Catalyzing 15-O-Glycosylation of Ganoderic Acid A” (International Journal of Molecular Sciences, 2019)
